Experimental data taken from the RNAGym collection of RNA variant scans (doi:10.1093/molbev/msab373).

B1: Azoarcus group I ribozyme (parent)
chain: GUGCCUUGCGCCGGGAAACCACGCAAGGGAUGGUGUCAAAUUCGGCGAAACCUAAGCGCCCGCCCGGGCGUAUGGCAACGCCGAGCCAAGCUUCGGCGCCUGCGCCGAUGAAGGUGUAGAGACUAGACGGCACCCACCUAAGGCAAACGCUAUGGUGAAGGCAUAGUCCAGGGAGUGGCGAAAGUCACACAAACCGG

Variants of: B1
Experiment: reverse-splicing fitness (ratio to wild type); higher = more active; in vitro selection; Mg2+ level not given
Summary of the method: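 An in vitro group I ribozyme library with randomized positions was T7-transcribed and gel-purified. In triplicate, 10 pmol RNA in EPPS pH 7.5 was reacted with 50 pmoles of a 30-nt RNA substrate for 1 h at 37 °C across several added MgCl2 levels (1–48 mM), then stopped with EDTA. Products were reverse transcribed from a substrate-complementary primer, PCR-amplified and sequenced (HiSeq 4000). Fitness is a variant's read proportion after selection over that before, normalised to wild type.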
For C82G A111U A120G A145G C150G C169G U176C, the reverse-splicing fitness was 0.0116. C82G A111U A120G A145G C150G C169G U176A gave a reverse-splicing fitness of 0.0104. In the case of C82G A111U A120G C169A, the reverse-splicing fitness is reported as 0.00993. Work on C82G A111U A120G C169U yielded a reverse-splicing fitness of 0.0106. In the case of C82G A111U A120G C169G, the reverse-splicing fitness is reported as 0.014. Work on C82G A111U A120G A145C C150A C169U U176A yielded a reverse-splicing fitness of 0.0211. In the case of C82G A111U A120G A145C C150A C169U U176G, the reverse-splicing fitness is reported as 0.00529. With C82G A111U A120G A145C C150A C169U U176C the reverse-splicing fitness was 0.0103. Variant C82G A111U A120G A145U C150G C169G has a reverse-splicing fitness of 0.00774. C82G A111U A120G A145U C150G C169A gave a reverse-splicing fitness of 0.00944. For C82G A111U A120G A145U C150G C169U, the reverse-splicing fitness was 0.00825. C82G A111U A120G C150G C169G U176C gave a reverse-splicing fitness of 0.00484. C82G A111U A120G C150G C169G U176G gave a reverse-splicing fitness of 0.00471. Variant C82G A111U A120G C150G C169G U176A has a reverse-splicing fitness of 0.0069. C82G A111U A120G C150G U176C gave a reverse-splicing fitness of 0.0117. In the case of C82G A111U A120G C150G U176A, the reverse-splicing fitness is reported as 0.00658. For C82G A111U A120G C150G U176G, the reverse-splicing fitness was 0.00354. With C82G A111U A120G A145G C169A U176A the reverse-splicing fitness was 0.0172. With C82G A111U A120G A145G C169A U176G the reverse-splicing fitness was 0.00491. C82G A111U A120G A145G C169A U176C showed a reverse-splicing fitness of 0.0214. Variant C82G A111U A120G A145U C150G C169A U176G has a reverse-splicing fitness of 0.00513. With C82G A111U A120G A145U C150G C169A U176A the reverse-splicing fitness was 0.0104. Work on C82G A111U A120G A145U C150G C169A U176C yielded a reverse-splicing fitness of 0.0114. In the case of C82G A111U A120G C169U U176A, the reverse-splicing fitness is reported as 0.0197. Variant C82G A111U A120G C169U U176G has a reverse-splicing fitness of 0.00589. With C82G A111U A120G C169U U176C the reverse-splicing fitness was 0.0179. With C82G A111U A120G A145U C150U C169U the reverse-splicing fitness was 0.00944. Variant C82G A111U A120G A145U C150U C169G has a reverse-splicing fitness of 0.0123. With C82G A111U A120G A145U C150U C169A the reverse-splicing fitness was 0.0117. C82G A111U A120G A145G C169G U176G showed a reverse-splicing fitness of 0.00429. In the case of C82G A111U A120G A145G C169G U176A, the reverse-splicing fitness is reported as 0.0166. For C82G A111U A120G A145G C169G U176C, the reverse-splicing fitness was 0.0235. C82G A111U A120C C150U C169A U176C showed a reverse-splicing fitness of 0.0138. Work on C82G A111U A120C C150U C169A U176A yielded a reverse-splicing fitness of 0.0158. Variant C82G A111U A120C C150U C169A U176G has a reverse-splicing fitness of 0.00644. C82G A111U A120G A145G C169A showed a reverse-splicing fitness of 0.0111. With C82G A111U A120G A145G C169U the reverse-splicing fitness was 0.00985. In the case of C82G A111U A120G A145G C169G, the reverse-splicing fitness is reported as 0.0141. In the case of C82G A111U A120G A145U C150G C169G U176G, the reverse-splicing fitness is reported as 0.00425. C82G A111U A120G A145U C150G C169G U176C gave a reverse-splicing fitness of 0.00489. Variant C82G A111U A120G A145U C150G C169G U176A has a reverse-splicing fitness of 0.00644. Work on C82G A111U A120C A145U C150U U176G yielded a reverse-splicing fitness of 0.00687. C82G A111U A120G U176A gave a reverse-splicing fitness of 0.0148. Work on C82G A111U A120G U176C yielded a reverse-splicing fitness of 0.0216. Variant C82G A111U A120G A145G C150A C169U U176C has a reverse-splicing fitness of 0.0177. C82G A111U A120G A145G C150A C169U U176G gave a reverse-splicing fitness of 0.00642. For C82G A111U A120G A145G C150A C169U U176A, the reverse-splicing fitness was 0.0204. For C82G A111U A120C C169G U176A, the reverse-splicing fitness was 0.0203. Work on C82G A111U A120C C169G U176G yielded a reverse-splicing fitness of 0.00577. For C82G A111U A120C C169G U176C, the reverse-splicing fitness was 0.0244. For C82G A111U A120G C150U, the reverse-splicing fitness was 0.0127. Work on C82G A111U A120G C150G yielded a reverse-splicing fitness of 0.00634. Work on C82G A111U A120G C150A yielded a reverse-splicing fitness of 0.00998. C82G A111U A120C C150A U176G gave a reverse-splicing fitness of 0.0115. Variant C82G A111U A120C C150A U176A has a reverse-splicing fitness of 0.0138. For C82G A111U A120C C150A U176C, the reverse-splicing fitness was 0.0231. C82G A111U A120G C150U C169U U176A gave a reverse-splicing fitness of 0.0199. With C82G A111U A120G C150U C169U U176C the reverse-splicing fitness was 0.0168. C82G A111U A120G C150U C169U U176G gave a reverse-splicing fitness of 0.00743. C82G A111U A120G A145C U176G showed a reverse-splicing fitness of 0.0065. C82G A111U A120G A145C U176A gave a reverse-splicing fitness of 0.012. C82G A111U A120G A145C U176C showed a reverse-splicing fitness of 0.0136. Work on C82G A111U A120G A145G C150G C169G yielded a reverse-splicing fitness of 0.00782. With C82G A111U A120G A145G C150G C169U the reverse-splicing fitness was 0.00909. Variant C82G A111U A120G A145G C150G C169A has a reverse-splicing fitness of 0.00911. Variant C82G A111U A120G A145G C169U U176C has a reverse-splicing fitness of 0.0161. In the case of C82G A111U A120G A145G C169U U176A, the reverse-splicing fitness is reported as 0.0198. Variant C82G A111U A120G A145G C169U U176G has a reverse-splicing fitness of 0.00501. In the case of C82G A111U A120G A145C C169A U176C, the reverse-splicing fitness is reported as 0.00976. Variant C82G A111U A120G A145C C169A U176A has a reverse-splicing fitness of 0.0152. Variant C82G A111U A120G A145C C169A U176G has a reverse-splicing fitness of 0.00399. With C82G A111U A120C U176A the reverse-splicing fitness was 0.0172. With C82G A111U A120C U176C the reverse-splicing fitness was 0.0303. C82G A111U A120C U176G showed a reverse-splicing fitness of 0.00814. Variant C82G A111U A120G A145G C150U has a reverse-splicing fitness of 0.0139. Work on C82G A111U A120G A145G C150G yielded a reverse-splicing fitness of 0.00786. With C82G A111U A120G A145G C150A the reverse-splicing fitness was 0.00899. C82G A111U A120G A145G U176G showed a reverse-splicing fitness of 0.0077. C82G A111U A120G A145G U176A gave a reverse-splicing fitness of 0.0125. For C82G A111U A120G A145G U176C, the reverse-splicing fitness was 0.0176. C82G A111U A120G C150A C169U U176G gave a reverse-splicing fitness of 0.00759. C82G A111U A120G C150A C169U U176A showed a reverse-splicing fitness of 0.0244. Variant C82G A111U A120G C150A C169U U176C has a reverse-splicing fitness of 0.0215. C82G A111U A120C C150G U176A showed a reverse-splicing fitness of 0.00531.
